For test [1], the target named is CD3 (Sino Biological). Put plainly: ELISA on CD3, curve fit. The procedure: Next day, plate was washed once with 200 μl of PBST, and then a surface blocking was performed at room temperature with 5% skim milk for 1-2 hours. […] Each well was then washed three times with 200 μl of PB ST to remove unbound samples. Horseradish peroxidase (HRP)-conjugated anti-human IgG (Fab specific) antibodies (Sigma, USA) were added to wells at a ratio of 1:1000 for a reaction at room temperature. After three times of washing with 200 ul of PBST, a color reaction of HRP was induced using TMB solution (GEhealthcare, USA) in a volume of 100 μl/well. The reaction was terminated by using a stop solution (2.5 M H₂SO₄, 100 μl/well). A spectrophotometer was used to measure the absorbance at a wavelength of A450 to calculate the binding affinity.
Chain of CD3 (Sino Biological) (P07766 23-126, chain 1 of 2): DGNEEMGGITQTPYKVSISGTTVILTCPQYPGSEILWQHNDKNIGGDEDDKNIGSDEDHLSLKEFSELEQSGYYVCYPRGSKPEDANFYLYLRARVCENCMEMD
Chain of CD3 (Sino Biological) (P04234 22-105, chain 2 of 2, further chain): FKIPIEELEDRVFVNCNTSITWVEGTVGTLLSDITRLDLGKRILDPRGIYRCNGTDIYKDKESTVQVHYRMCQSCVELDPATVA
On the technique in general: ELISA stands for enzyme-linked immunosorbent assay.

The target in test [2] is PD-L1 expressed on cells (UniProt Q9NZQ7 19-290, limits assumed). In words: cell-based or functional assay.
Chain of PD-L1 expressed on cells (Q9NZQ7 19-290 limits assumed): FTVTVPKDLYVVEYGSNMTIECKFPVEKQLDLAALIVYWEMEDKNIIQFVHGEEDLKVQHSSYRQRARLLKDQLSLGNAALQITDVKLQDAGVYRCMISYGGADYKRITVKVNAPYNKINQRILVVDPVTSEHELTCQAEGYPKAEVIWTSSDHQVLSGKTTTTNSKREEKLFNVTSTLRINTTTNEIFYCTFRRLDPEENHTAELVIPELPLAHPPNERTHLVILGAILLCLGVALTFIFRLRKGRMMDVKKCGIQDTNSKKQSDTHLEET

B1: UCHT1 (antibody, V domains shown)
VH: EVQLQQSGPELVKPGPSMKISCKASGYSFTGYTMNWVKQSHGKNLEWMGLINPYKGVSTYNQKFKDKATLTVDKSSSTAYMELLSLTSEDSAVYYCARSGYYGDSDWYFDVWGQGTTLTVFS
VL: DIQMTQTTSSLSASLGDRVTISCRASQDIRNYLNWYQQKPDGTVKLLIYYTSRLHSGVPSKFSGSGSGTDYSLTISNLEQEDIATYFCQQGNTLPWTFAGGTKLEIKR
notes: A bought antibody (BioLegend); also called parental anti-CD3 antibody
B1: the Bmax in test [1] turned out to be 3.67 OD 450 nm.

B2: ACE-05-VL2 (other)
heavy: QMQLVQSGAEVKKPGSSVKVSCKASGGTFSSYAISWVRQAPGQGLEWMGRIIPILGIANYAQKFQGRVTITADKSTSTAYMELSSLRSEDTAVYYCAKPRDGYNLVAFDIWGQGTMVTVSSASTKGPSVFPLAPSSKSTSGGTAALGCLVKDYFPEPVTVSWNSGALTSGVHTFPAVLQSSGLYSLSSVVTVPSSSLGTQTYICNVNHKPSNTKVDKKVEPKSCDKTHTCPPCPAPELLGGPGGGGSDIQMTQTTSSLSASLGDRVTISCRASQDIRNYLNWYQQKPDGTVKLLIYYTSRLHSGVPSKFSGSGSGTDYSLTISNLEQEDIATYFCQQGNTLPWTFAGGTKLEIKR
light: QLVLTQPPSVSGAPGQRVTISCTGSSSNIGAGYDVHWYQQLPGAAPKLLIYGDINRPSGVPDRFSGSKSGISASLAITGLQAEDEADYYCQSYDSSLSGGVFGGGTKLTVLRTVAAPSVFIFPPSDEQLKSGTASVVCLLNNFYPREAKVQWKVDNALQSGNSQESVTEQDSKDSTYSLSSTLTLSKADYEKHKVYACEVTHQGLSSPVTKSFNRGEC
On to B2, for which the “EC50 (read off the curve), PD-1/PD-L1 Blockade Bioassay” value in test [2] was roughly 0.09 µg/mL.

B3: ACE-09 (bispecific antibody)
heavy 1: not shown
heavy 2: not shown
light: QLVLTQPPSVSGAPGQRVTISCTGSSSNIGAGYDVHWYQQLPGAAPKLLIYGDINRPSGVPDRFSGSKSGISASLAITGLQAEDEADYYCQSYDSSLSGGVFGGGTKLTVLRSVAAPSVFIFPPSDEQLKSGTASVVCLLNNFYPREAKVQWKVDNALQSGNSQESVTEQDSKDSTYSLSSTLTLSKADYEKHKVYACEVTHQGLSSPVTKSFNRGEC
notes: also called ACE-09-VH + ACE-09-VL + ACE-09-LC
In turn, B3 displayed a Bmax in test [1] of 4.04 OD 450 nm.

B4: ACE-05 (bispecific antibody)
heavy 1: not shown
heavy 2: not shown
light: QLVLTQPPSVSGAPGQRVTISCTGSSSNIGAGYDVHWYQQLPGAAPKLLIYGDINRPSGVPDRFSGSKSGISASLAITGLQAEDEADYYCQSYDSSLSGGVFGGGTKLTVLRTVAAPSVFIFPPSDEQLKSGTASVVCLLNNFYPREAKVQWKVDNALQSGNSQESVTEQDSKDSTYSLSSTLTLSKADYEKHKVYACEVTHQGLSSPVTKSFNRGEC
notes: also called ALiCE; ACE-05-VH + ACE-05-VL + ACE-05-LC
Regarding B4, the Bmax in test [1] came out at 3.97 OD 450 nm.

These data come from patent US20190309094A1 (Y BIOLOGICS, published 2019).
